# In the nanobody polyreactivity screen of Harvey et al. (2022):
# Assay: yeast display, Sf9 membrane polyspecificity reagent, FACS + sequencing; frameworks hold sequencing errors
# Summary of the method: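 A synthetic nanobody library was expressed on Saccharomyces cerevisiae BJ5465 by galactose induction for 36–48 hours. The library was stained for 1 hour at 4 °C with 10% biotinylated, detergent-solubilized Sf9 membrane reagent and enriched with streptavidin microbeads before FACS. Low and high (top ~1%) gates were set on anti-HA fluorescence for expression and streptavidin fluorescence for reagent binding, and each polyreactivity label reflects the gate of origin.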
row,Sequence,polyreactivity (PSR sort gate)
1,QVQLVESGGGLVQAGGSLRLSCAASGRTFGQYAMGWYRQAPGKERELVAAITGGGSTNYADSVKGRFTISRDNAKNTVYLHMNSLKPEDTAVYYCAAKARSYWYPRLYIYEGDYWGQGTQVTVSS,low polyreactivity
2,QVQLVESGGGLVQAGGSLRLSCAASGSIFIRNAMGWYRQAPGKERELVAAISTIGGRTYYADSVKGRFTISRDNAKNTVYLQMNSLNPEDTAVYYCAAEQGTPSTNWYDYWGQGTQVTVSS,low polyreactivity
3,QVQLVESGGGLVQAGGSLRLSCAASGGTFRYNAKGWYRQAPGKERELFATISIRGASTYYADSVKGRITISRDNAKHSVYLQLNSLKPEDTAVFYCAAERRNSYVLLIKYNYWGQGTQVTVSS,low polyreactivity
4,QVQLVESGGGLVQAGGSLRLSCAASGRTFVYNAMGWYRQAPGKERELVAAIDGGGDRTYYADSVKGRFTISRDNAKNTVYLQMNSLKPEDTAVYYCARDPVVTYYYSYPEGDYWGQGTQVTVSS,low polyreactivity
5,QVQLVESVGGLVQAGGSLRLSCAASGSISIRNAMGWYRQAPGKERELVAAITYSGGSTYYADSVKGRFTISRDNAKNTVYLQMNSLKPEDTAVYYCNKDTYLATYLYDYWGQGTQVTVSS,low polyreactivity
6,QVQLVESGGGLVQAGGSLRLSCAASGRTFSYNAIGWYRQAPGKERTNYADSVKGRFTISRDNAKNTVYLQMNSLKPEDTAVYYCAVEPYLSYPPTSIDNDYDYWGQGTQVTVSS,low polyreactivity
7,QVQLVESGGGLVQAGGSLRLSCAASGNIFSKYAMGWYRQAPGKERELVAAISRSGGRTYYADSVKGRFTISRDNAKNTVYLQMNSLNPEDTAFYYCNKAQRHYPYDYWGQGTQVTVSS,high polyreactivity
8,QVQLVESGGGLVQAGGSLRLSCAASGLIFRGYAMGWYIQAPGKERELVAAISKSGGSTYYADSVKGRFTISRDNAKNTVYLQMNSLKPEDTAVYYCNTDYDWKYFLSSQYDYWGQGTQVTVSS,high polyreactivity
9,QVQLVESGGGLVQAGGSLRLSCAASGRTFYGYAMGWYRQAPGKERELVAGITSRVGSTYYADSVKGRFTISRDNAKNTVYLQMNSLKPEDTAVYYCAADRYAVRSYHYDYWGQGTQVTVSS,low polyreactivity
10,QVQLVESGGGLVQAGGSLRLSCAASGSTFDENAMGWYRQAPGKERELVAVISDSGGSTYYADSVKGRFTISRDYAKNTVYFQMNSLKPEDTAVYYCAKDVPPEYPTSSYDYWGQGSQVTVSS,low polyreactivity
11,QVQLVESGGGLVQAGGSLRLSCDASGRTFLRNTMGWYRQAPGKERELVAAISRSGATTYYADSVKGRFTISRDNAKNTVYLQMNTLKPEDTADYYCAAAYRGREVEYNSWGQGTQVTVSS,high polyreactivity
12,QVQLVESGGVLVQAGGSLRLSCAASGLIFPSYALGWYRQAPGKERELVAAITFSGSDTNYADSVKGRFTISRDNAKNTVSLQMKSLKPEDTAVYYCAAAYFDFWGWLHDYWGQGTQVTVSS,low polyreactivity
13,QVQLVESGGGLVQAGGSLRISCPASGTFYYYGMGWSRQAPGKERELVAAISWSGTSTFYADSVKGRFTISRDNAKNTVYIQMKSLKPEDTAVYYCHKPKFDSSGHDYWGQGTQETVSS,low polyreactivity
14,QVQLVESGGGLVQAGGSLRLSCAASGSTLIRNVMGWYRQAPGKERELVAAINTRGTTTYYADSVKGRITISRDNAKNTVYLQMNSLKPEDTAVYYCAARTPHYSYGYWGQGTHVTVSS,high polyreactivity
15,QVQLVESGGGLVQAGGSLRLSCAASGFTFDVYAKGLYRQAPGKERELVAAISIGANTYYADSVKGRFTISRDNAKSTVYLQMNSLKPEDTAVYYCAKRAYAPQYGYWGQGTQVTVSS,low polyreactivity
16,QVQLVESAGGLVQAGGSLRLSCAASGFTFREYAMGWYRQAPGKERELVAVITSGDNTYYADSVKGRFTISRDNAKNTVYLQMNSLKPEDTAVYYCAKDYNRYYWPWVIRGYDYWGQGTQVTVSS,low polyreactivity
17,QVQLVESGGGLVQAGGSLRLSCAASGRIFYSYTMGWYRQAPGKEREMVAGINRSVGSTYYADSVKGRFTISRDNAKNTVYLQMNSLKPEDTAVYYCAAGSRRRSYYTFSSVHGHYYWGQGTQVTVSS,high polyreactivity
18,QVQLVESGGGLVQAGGSLRLSCAASGSTFNPYAMGWYRQAPGKERELVAAINSRGGSTYYADSVKGRFTISRDNAKNTVYLQMNSLKPEDSAVYYCAARTRRRTSAYEYWGQGTQVTVSS,high polyreactivity
19,HVQLVESGGGLVQAGGSRRLSCAASGRIFYGYAMGWYRQAPGKERELVAGISYRGARTYYADSVKGRFTISRDNAKNTVYLQMNSLKPEDTAVYYCNAVPYYPFAFGALDYWGQGTQVTVSS,high polyreactivity
20,QVQLVESGGGLVQAGGSLRLSCAASGSIFHYYAMGWYRQAPGKERELVAAISSVGSTYYADSVKGRFTISRDNAKNTVYLQINSLKPEDTAVYYCAAEAYAKRYVDRYSWYYYWGQGTQVTVSS,high polyreactivity
21,QVQLVESGGGLVQAGGSLRLSCAASGRTFTFYAMGWYRQAPGKERELVATISYSGGRTYYADSVKGRFTISRDNAKNTVYLQMNSLKPEDTAVYYCATSVSGPWWKLYYWGQGTQVTVSS,low polyreactivity
22,QVQLVESGGGLVQAVGSLRLSCAASGLTFYPNAMGWYRQAPGKERQFVDSISISGRTYYADSVKGRFTISRDNAKNTVYLQMNSLKPEDTAVYYCAARYVRSGLYRKYDYWGQGTQVTVSS,high polyreactivity

row,Sequence,polyreactivity (PSR sort gate)
1,QVQLVESGGGLVQAGGSHRLSCAASGSTFTWYPMGWYRQEPGKERELVADISYGGGSTYYADSVKGRFTISRDNAKNTVYLQMNSLKPEDTAVYYCAAESIPYYRYDYWGQGTQVTVSS,low polyreactivity
2,QVQLVESGGGLVQAGGSLRLSCAASGSIFWGNAMGWYRQAPGKERELVATISWSAGSTYYADSVKGRFTISRDNAMNTVYLQMNSLKPDDTAVYYCATDVRHSTLYYYWGQGTQVTVSS,low polyreactivity
3,QVQLVESGGGLVQAGCSLRLSCAASGSSFYTYTMGWYRQAPGKERELVAAITWSGGSTYYADSVKGRFTISRDNAKNTVYLQMNSLKPEDTAVYFCNADQDYQAARPSGMDYWGQGTQVTVSS,low polyreactivity
4,QVQLVESGGGIVQAGGSLRLSCAASGNIFGQYAMGWYRQAPGKERELVAAITTTGSTYYADSVKGRFTISRDNAKNTVYLQMNSLKPEDTAVYYCAAVRYYPISYSEYWQYGYWGQGTQVTVSS,low polyreactivity
5,QVQLVESGGGLVQAGASLSLSCAASGYIFARYAMGLYIQSPGKERELVAAIRGDGGSTYYADSVKGRFTISRDNAKNTVYLQMNSLKPVDTAVYYCSTEIPWVSYYWTYYFWGQCTQVTVSS,high polyreactivity
6,QVQLVESGGGLVQAGGSLRLSCAASGSTFVYYAMGWYRQAPGKERELVATINYNGGSTSYADSVKGRFTISRDNEKNTVYLQMNSLKPEDTAVYYCAKDRYYTWGDYWGQGTQVTVSS,low polyreactivity
7,QVQLVESGGGLVQAGGSLRLSCAASGRTFDPNAMGWYRQAPGKERELVAAISGRGTSTYYADSVKGRFTISRDDAKNTVYLQMNSLKPEDTAVYYCAKAGAGESIAKYDYWGQGTQVTVSS,low polyreactivity
8,QVQLVESGGGLVQAGGSLRLSCAASGGIFGYYAMGWYRQAPGKEREFVAAITARGGRTYYADSVKGRFTISRDNAKNTVYLQMNSLKPEDTAVYYCAAYSPVWGRYYHRVERDYWGQGTQVTVSS,high polyreactivity
9,QVQLVESGGGLVQAGGSLRLSCAASGRIFVYNAMGWSRQAPGKVRELVASITSSGGSTSYADSVKGRFTISRDNAKNTVYLQMNSLKPEDTAVYSCAADVQPDTRSTPEMDYWGQGTQVTVSS,low polyreactivity
10,QVQLVESGGGLDQAGGSLRLSCAASGSIFVLYAMGWYRQAPGKERELVAAITRSGGDTYYADSVKGRFTISRDNAKNTVYLQMNSLKPEDTAVYYCAAERSWYPWVATGYYWGQGTQVTVSS,low polyreactivity
11,QVQLEESGGGLFQAGGSLRLSCAASGRTFRLYDMGWYRQAPGKERELVAAISKSGGSTYYADSVKGRFTISRDYAKNPVYVQMNSLKPEDTAVYYCAAGTRVCEYDYWGQGTQVTVSS,high polyreactivity
12,QVQLVESGGGLVQAGGSLRLICAASGNIFSYNAMGWYRQAPGKERELVAAISRRGGSTFYADSVKGRFTISRDKAKNTVYLQMNSLKPEDTAVYYCAASRNRYSYGYWGQGTQVTVSS,high polyreactivity
13,QVQLVESGGGLVQAGGSLRLSCAASGSIFYLYAMGWYRQAPGKERELVATISLSSGSTYADSVKGRFTISRDNAKNTVYLQMNSLKPDDTAVYYCAKDLSRWGYNEYDYWGQGTQVTLSS,low polyreactivity
14,QVQLVESGGGLVQAGGSLRLSCAASGSIFGIYAMGWYRQAPGKERELVAAISKSGGGTYYADSVKGRFTISRDNAKNTVYLQMNSLKPEDTAVYYCNADYWQWYSYWYDYWGQGTQVTVSS,high polyreactivity
15,QVQLVESGGGLVQAGGSLRLSCDASGSIFVKNAMGWYRQAPGKERELVAVITIRTATTYYADSVKGRFTISRDNAKNTVYLQMNSLKPEDTAVYYCASAKRQRGYLQREGNYWGQGTQVTVSS,low polyreactivity
16,QVQLVESGGGLVQAGGSLRLSCAASGRIFSGYAMGWYRQAPGKERELVAVITSTGGSTYYADSVKGRFTISRDNAKNTVYLQMNSLKPEDTAVYYCATRGVRRYYKTMNYWGQGTQVTVSS,high polyreactivity
17,QVQLVESGGGLVQAGGSLRLSCAASGSIFYGYTMGWYRQAPGKERELVAAITYRGGRTYYADSVKGRFTISRDNAKNTDYLQMNSLKPEDTAVYYCAARYDYFSSKYGYWGQGTQVTVSS,high polyreactivity
18,QVQLVESGGGLVQAGGSLRLSCAASGRIFGAYAMGWYRQAPGKERELVATITSDGSTDYADSVKGRFTISRDNAKNTVYLQMNSLKPEDTAVYYCAVAYLWRPYDFREFDYWGQGTQVTVSS,low polyreactivity
19,QVQLVESGGGLVQAGGSLRLSCAASVLIFHTYGMGWYRQAPGKERELVADITDGGSTYYADSVKGRFTISRDNAKNTVYLQMNSLKPEDTAVYYCAADERGVFLTYWYFWYDYWGQGTQETVSS,low polyreactivity
20,QVQLVESGGGLVQAGGSLRLSCAASGFTFLDYALGWYIQAPGKERELVASISSSGGSTRYADSVKGRFTISRDNAKNTVYLQMNSLKPEDTAVYYCNAQIAEVPNDYWGQGPQVTVSS,low polyreactivity
21,QVQLVESGGGLVQAGGSLRLSCAASGRTFYNAMGWYIQAPGKERELVAAITTGGGTKYADSVKGRFTISRDNAKNTVYLQMHSLQPEDTAVYYCNTDAWYHFYHGAHKFDYWGQGTQVTVSS,low polyreactivity
